Numbering of substitutions follows the chain as printed.
T1: human GALR3 receptor (human, UniProt O60755 1-368)
T1 sequence (looked up): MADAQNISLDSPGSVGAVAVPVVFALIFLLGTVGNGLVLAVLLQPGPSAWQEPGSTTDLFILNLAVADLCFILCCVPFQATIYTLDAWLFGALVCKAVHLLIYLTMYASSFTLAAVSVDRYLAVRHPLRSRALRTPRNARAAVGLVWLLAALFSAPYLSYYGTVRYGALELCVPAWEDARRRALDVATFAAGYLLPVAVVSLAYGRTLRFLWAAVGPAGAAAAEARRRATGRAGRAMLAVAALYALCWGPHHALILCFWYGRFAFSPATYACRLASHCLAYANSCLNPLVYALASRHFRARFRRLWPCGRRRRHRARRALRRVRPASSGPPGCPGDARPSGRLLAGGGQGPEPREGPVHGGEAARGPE

T2: human 5HT1A receptor (human, UniProt P08908 1-422)
T2 sequence (looked up): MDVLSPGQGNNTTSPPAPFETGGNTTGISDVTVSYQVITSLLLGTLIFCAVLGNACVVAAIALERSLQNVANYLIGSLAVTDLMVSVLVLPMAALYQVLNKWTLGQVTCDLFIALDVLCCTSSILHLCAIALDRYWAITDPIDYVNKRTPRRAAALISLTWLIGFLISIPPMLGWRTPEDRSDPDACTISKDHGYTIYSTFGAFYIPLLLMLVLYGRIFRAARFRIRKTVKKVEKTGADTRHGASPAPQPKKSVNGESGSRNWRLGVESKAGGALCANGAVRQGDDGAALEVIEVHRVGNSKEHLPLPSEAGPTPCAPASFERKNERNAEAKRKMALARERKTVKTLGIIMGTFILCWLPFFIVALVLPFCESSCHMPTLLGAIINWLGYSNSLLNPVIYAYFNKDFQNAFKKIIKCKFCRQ

T3: rat GALR3 receptor (rat, UniProt O88626 1-370)
T3 sequence (looked up): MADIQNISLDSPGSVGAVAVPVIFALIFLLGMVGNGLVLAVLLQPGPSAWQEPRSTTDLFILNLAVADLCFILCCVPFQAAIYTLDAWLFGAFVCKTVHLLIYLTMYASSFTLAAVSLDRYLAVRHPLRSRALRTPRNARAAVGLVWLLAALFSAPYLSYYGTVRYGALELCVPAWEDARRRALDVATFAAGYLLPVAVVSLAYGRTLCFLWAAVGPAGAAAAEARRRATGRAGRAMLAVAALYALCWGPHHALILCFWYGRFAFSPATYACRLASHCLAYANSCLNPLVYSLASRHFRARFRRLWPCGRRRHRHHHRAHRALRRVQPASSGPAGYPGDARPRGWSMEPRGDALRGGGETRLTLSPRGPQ

T4: human α2A adrenergic receptor (human, UniProt P08913 1-465)
T4 sequence (looked up): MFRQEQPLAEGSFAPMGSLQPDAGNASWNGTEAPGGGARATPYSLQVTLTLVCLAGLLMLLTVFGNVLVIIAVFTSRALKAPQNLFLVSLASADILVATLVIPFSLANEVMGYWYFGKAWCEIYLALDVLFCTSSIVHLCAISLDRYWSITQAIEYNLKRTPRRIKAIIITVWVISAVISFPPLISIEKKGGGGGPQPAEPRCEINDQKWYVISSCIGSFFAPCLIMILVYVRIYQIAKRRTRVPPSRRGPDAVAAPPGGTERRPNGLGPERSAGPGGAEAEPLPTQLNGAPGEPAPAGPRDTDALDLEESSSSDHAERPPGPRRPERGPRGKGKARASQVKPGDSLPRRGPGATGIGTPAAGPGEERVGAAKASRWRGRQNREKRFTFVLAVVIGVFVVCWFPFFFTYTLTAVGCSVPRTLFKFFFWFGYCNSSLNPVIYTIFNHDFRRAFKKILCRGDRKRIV

T5: human Y1 receptor (human, UniProt P25929 1-384)
T5 sequence (looked up): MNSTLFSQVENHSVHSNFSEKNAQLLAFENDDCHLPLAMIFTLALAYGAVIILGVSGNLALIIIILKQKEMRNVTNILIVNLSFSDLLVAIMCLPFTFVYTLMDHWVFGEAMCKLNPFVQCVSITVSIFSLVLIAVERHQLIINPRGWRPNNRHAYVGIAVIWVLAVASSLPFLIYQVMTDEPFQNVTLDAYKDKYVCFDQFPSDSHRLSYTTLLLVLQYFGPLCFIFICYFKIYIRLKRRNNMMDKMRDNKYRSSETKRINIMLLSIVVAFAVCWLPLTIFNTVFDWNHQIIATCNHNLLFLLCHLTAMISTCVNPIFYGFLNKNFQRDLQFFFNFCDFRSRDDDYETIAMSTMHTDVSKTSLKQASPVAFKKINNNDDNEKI

T6: human α1A adrenergic receptor (human, UniProt P35348 1-466)
T6 sequence (looked up): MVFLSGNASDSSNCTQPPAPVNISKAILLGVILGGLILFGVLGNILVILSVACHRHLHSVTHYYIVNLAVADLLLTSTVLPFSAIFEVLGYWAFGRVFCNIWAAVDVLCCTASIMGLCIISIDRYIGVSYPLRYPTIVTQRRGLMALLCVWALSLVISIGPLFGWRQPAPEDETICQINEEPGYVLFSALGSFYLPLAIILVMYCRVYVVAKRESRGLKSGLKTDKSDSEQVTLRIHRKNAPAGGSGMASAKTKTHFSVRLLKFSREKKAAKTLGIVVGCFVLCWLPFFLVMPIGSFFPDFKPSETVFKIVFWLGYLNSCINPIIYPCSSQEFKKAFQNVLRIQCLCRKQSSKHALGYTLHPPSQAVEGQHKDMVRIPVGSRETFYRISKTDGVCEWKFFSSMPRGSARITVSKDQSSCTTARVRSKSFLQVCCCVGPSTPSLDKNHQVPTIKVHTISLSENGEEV

B1: Human Gαq/z5 (Ala→Ser substitution at position 171) (other)
chain: MTLESIMACCLSEEAKEARRINDEIERQLRRDKRDARRELKLLLLGTGESGKSTFIKQMRIIHGSGYSDEDKRGFTKLVYQNIFTAMQAMIRAMDTLKIPYKYEHNKAHAQLVREVDVEKVSAFENPYVDAIKSLWNDPGIQECYDRRREYQLSDSTKYYLNDLDRVADPSYLPTQQDVLRVRVPTTGIIEYPFDLQSVIFRMVDVGGQRSERRKWIHCFENVTSIMFLVALSEYDQVLVESDNENRMEESKALFRTIITYPWFQNSSVILFLNKKDLLEEKIMYSHLVDYFPEYDGPQRDAQAAREFILKMFVDLNPDSDKIIYSHFTCATDTENIRFVFAAVKDTILQLNLKYIGLC
B2: C. elegans Gαq/z5 (other)
chain: MACCLSEEAREQKRINQEIEKQLQRDKRNARRELKLLLLGTGESGKSTFIKQMRIIHGQGYSEEDKRAHIRLVYQNVFMAIQSMIRAMDTLDIKFGNESEELQEKAAVVREVDFESVTSFEEPYVSYIKELWEDSGIQECYDRRREYQLTDSAKYYLSDLRRLAVPDYLPTEQDILRVRVPTTGIIEYPFDLEQIIFRMVDVGGQRSERRKWIHCFENVTSIMFLVALSEYDQVLVECDNENRMEESKALFRTIITYPWFTNSSVILFLNKKDLLEEKILYSHLADYFPEYDGPPRDPIAAREFILKMFVDLNPDADKIIYSHFTCATDTENIRFVFAAVKDTILQHNLKYIGLC
B3: C. elegans Gαq/z9 (other)
chain: B2 chain with H347N

Each binder was assayed against human 5HT1E receptor (human, UniProt P28566 1-365) (assay: cell-based or functional assay).
human 5HT1E receptor, sequence (P28566 whole entry): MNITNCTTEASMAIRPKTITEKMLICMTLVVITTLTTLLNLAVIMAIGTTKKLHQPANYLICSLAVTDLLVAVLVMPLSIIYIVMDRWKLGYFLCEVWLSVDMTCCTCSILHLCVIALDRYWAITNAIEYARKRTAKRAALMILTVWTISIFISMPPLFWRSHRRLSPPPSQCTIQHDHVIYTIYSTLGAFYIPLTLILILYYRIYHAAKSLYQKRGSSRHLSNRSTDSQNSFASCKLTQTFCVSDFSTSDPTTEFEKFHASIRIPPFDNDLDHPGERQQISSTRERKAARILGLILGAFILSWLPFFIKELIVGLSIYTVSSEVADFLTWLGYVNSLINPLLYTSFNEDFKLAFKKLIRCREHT

Row | Binder | max Ca2+ signal, COS-7, FLIPR; agonist 5HT
1 | B1 | 202 fluorescence units
2 | B2 | 229 fluorescence units
3 | B3 | 238 fluorescence units

Each binder was assayed against mouse 5HT5B receptor (mouse, UniProt P31387 1-370) (assay: cell-based or functional assay).
mouse 5HT5B receptor, sequence (P31387 whole entry): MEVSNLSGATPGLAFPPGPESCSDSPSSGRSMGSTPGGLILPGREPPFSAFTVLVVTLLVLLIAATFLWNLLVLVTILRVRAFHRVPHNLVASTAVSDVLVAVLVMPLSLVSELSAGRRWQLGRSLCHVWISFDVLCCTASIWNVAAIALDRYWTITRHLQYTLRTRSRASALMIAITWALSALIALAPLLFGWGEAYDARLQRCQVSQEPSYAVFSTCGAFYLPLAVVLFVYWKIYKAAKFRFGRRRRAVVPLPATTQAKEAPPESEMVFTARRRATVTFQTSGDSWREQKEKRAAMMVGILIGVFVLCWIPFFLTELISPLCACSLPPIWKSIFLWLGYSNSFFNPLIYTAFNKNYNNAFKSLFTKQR

Row | Binder | max Ca2+ signal, COS-7, FLIPR; agonist 5HT
4 | B1 | 251 fluorescence units
5 | B2 | 265 fluorescence units
6 | B3 | 443 fluorescence units

What follows are binders tested against human 5HT1D receptor (human, UniProt P28221 1-377) (assay: cell-based or functional assay).
human 5HT1D receptor, sequence (P28221 whole entry): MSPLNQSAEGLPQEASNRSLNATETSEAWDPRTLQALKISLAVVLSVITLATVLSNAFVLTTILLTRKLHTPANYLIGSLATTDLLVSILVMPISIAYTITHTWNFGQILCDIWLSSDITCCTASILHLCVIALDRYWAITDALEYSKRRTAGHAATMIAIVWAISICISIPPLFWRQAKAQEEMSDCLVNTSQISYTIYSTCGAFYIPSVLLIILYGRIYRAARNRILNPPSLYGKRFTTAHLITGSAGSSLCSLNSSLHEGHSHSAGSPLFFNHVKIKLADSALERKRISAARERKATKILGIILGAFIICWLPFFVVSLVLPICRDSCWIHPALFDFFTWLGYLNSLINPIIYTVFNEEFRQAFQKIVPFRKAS

Row | Binder | max Ca2+ signal, COS-7, FLIPR; agonist 5HT
7 | B1 | 316 fluorescence units
8 | B2 | 414 fluorescence units
9 | B3 | 504 fluorescence units

The binders below were run against human 5HT4 receptor (human, UniProt Q13639 1-388) (assay: cell-based or functional assay).
human 5HT4 receptor, sequence (Q13639 whole entry): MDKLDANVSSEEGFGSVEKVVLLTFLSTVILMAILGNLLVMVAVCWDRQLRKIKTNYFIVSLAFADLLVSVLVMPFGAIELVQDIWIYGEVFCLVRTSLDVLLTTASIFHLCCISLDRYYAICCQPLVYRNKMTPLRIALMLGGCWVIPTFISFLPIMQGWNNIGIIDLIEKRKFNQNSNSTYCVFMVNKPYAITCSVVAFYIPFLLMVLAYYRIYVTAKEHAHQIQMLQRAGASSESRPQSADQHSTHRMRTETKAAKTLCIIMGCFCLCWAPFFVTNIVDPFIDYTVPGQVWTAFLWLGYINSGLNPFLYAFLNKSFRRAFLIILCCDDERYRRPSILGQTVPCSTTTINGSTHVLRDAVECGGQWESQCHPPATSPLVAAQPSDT

Row | Binder | max Ca2+ signal, COS-7, FLIPR; agonist 5HT
10 | B1 | 2160 fluorescence units
11 | B2 | 1010 fluorescence units
12 | B3 | 1700 fluorescence units

What follows are binders tested against human 5HT6 receptor (human, UniProt P50406 1-440) (assay: cell-based or functional assay).
human 5HT6 receptor, sequence (P50406 whole entry): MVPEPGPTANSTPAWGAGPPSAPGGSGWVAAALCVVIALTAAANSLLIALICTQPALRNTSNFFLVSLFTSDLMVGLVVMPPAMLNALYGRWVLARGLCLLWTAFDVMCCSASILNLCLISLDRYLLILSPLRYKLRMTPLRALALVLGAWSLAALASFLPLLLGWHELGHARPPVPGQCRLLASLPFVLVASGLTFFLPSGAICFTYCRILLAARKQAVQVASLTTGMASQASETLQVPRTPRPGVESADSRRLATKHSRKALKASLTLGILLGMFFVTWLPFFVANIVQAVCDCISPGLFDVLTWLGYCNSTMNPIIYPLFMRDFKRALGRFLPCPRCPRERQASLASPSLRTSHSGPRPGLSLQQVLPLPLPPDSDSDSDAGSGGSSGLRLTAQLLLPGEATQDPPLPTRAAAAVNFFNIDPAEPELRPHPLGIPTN

Row | Binder | max Ca2+ signal, COS-7, FLIPR; agonist 5HT
13 | B1 | 210 fluorescence units
14 | B2 | 1290 fluorescence units
15 | B3 | 2290 fluorescence units

What follows are binders tested against T1, human GALR3 receptor (assay: cell-based or functional assay).

Row | Binder | max Ca2+ signal, COS-7, FLIPR; agonist GAL
16 | B1 | 804 fluorescence units
17 | B2 | 1520 fluorescence units
18 | B3 | 2050 fluorescence units

What follows are binders tested against T2, human 5HT1A receptor (assay: cell-based or functional assay).

Row | Binder | max Ca2+ signal, COS-7, FLIPR; agonist 5HT
19 | B1 | 478 fluorescence units
20 | B2 | 2000 fluorescence units
21 | B3 | 3140 fluorescence units

What follows are binders tested against T3, rat GALR3 receptor (assay: cell-based or functional assay).

Row | Binder | max Ca2+ signal, COS-7, FLIPR; agonist GAL
22 | B1 | 2800 fluorescence units
23 | B2 | 2300 fluorescence units
24 | B3 | 2970 fluorescence units

Each binder was assayed against T4, human α2A adrenergic receptor (assay: cell-based or functional assay).

Row | Binder | max Ca2+ signal, COS-7, FLIPR; agonist NE
25 | B1 | 10900 fluorescence units
26 | B2 | 7580 fluorescence units
27 | B3 | 3040 fluorescence units

Each binder was assayed against T5, human Y1 receptor (assay: cell-based or functional assay).

Row | Binder | max Ca2+ signal, COS-7, FLIPR; agonist NPY
28 | B1 | 1880 fluorescence units
29 | B2 | 7720 fluorescence units
30 | B3 | 6730 fluorescence units

These binders were tested against T6, human α1A adrenergic receptor (assay: cell-based or functional assay).

Row | Binder | max Ca2+ signal, COS-7, FLIPR; agonist NE
31 | B1 | 14200 fluorescence units
32 | B2 | 9820 fluorescence units
33 | B3 | 6600 fluorescence units

The binders below were run against rat NTR1 receptor (rat, UniProt P20789 1-424) (assay: cell-based or functional assay).
rat NTR1 receptor, sequence (P20789 whole entry): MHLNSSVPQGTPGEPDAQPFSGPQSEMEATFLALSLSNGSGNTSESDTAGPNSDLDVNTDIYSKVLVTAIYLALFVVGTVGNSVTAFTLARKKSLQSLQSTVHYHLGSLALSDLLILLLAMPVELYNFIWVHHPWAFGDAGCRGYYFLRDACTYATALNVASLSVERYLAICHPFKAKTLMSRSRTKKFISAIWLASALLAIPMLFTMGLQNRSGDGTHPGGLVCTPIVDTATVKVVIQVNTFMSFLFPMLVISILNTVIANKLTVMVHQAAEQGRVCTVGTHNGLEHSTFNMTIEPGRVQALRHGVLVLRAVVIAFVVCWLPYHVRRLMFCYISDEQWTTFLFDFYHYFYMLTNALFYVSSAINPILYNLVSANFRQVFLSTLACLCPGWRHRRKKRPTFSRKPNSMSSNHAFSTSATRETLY

Row | Binder | max Ca2+ signal, COS-7, FLIPR; agonist NT
34 | B1 | 11200 fluorescence units
35 | B2 | 14500 fluorescence units
36 | B3 | 6110 fluorescence units
